Results on 1 compound are retold here after patent US11857645B2, “Compositions of near IR closed chain, sulfo-cyanine dyes and prostate specific membrane antigen ligands” (priority 2016, dated 2024).

Data set [1] can be described thus: mortality in pig animal model. The class given is in vivo. As to conditions: any tested dose. The source says:
(§1) Other methods of assessing the toxicity of compounds include in vivo studies which administer relatively large doses of a test compound to a group of animals to determine the level which is lethal to a percentage of the population (mean lethal dose LD50 or mean lethal concentration LC50). Toxicity of a compound can also be assessed in vivo by examining whether a compound produces statistically significant negative effects on cardiac, blood pressure, central nervous system (CNS), body weight, food intake, gross or microscopic pathology, clinical pathology, or respiratory measures in an animal.
(§2) Furthermore, toxicology of the composition of formula III was also investigated in non-clinical in vivo studies in both rats and dogs.

Data set [2] has as its system tester strains (histidine (his) biosynthetic operon mutants). Put plainly: Ames reverse mutation assay. The format is cell-based. The note with it: any of the tested doses. The text has this:
The Ames reverse mutation Assay is another common toxicology assay for assessing the toxicity of a compound. The Ames Assay, utilizes several different tester strains, each with a distinct mutation in one of the genes comprising the histidine (his) biosynthetic operon (Ames, B. N., et al., (1975) Mutation Res. 31:347-363). […] The Ames Assay is capable of detecting several different types of mutations (genetic damage) that may occur in one or more of the tester strains. The practice of using an in vitro bacterial assay to evaluate the genotoxic activity of drug candidates is based on the prediction that a substance that is mutagenic in a bacterium is likely to be carcinogenic in laboratory animals, and by extension may be carcinogenic or mutagenic to humans.
(§3) Further safety pharmacology was assessed in vitro using the human ether-a-go-go related gene (hERG) assay for determining possible cardio-toxic effects.

The nature of data set [3]: in vitro metabolic stability: breakdown into metabolites. The class given is in vitro ADME. As to the method: (§4) For example, determination of metabolic stability is commonly examined when assessing the toxicity of a compound as it is one of several major determinates in defining the oral bioavailability and systemic clearance of a compound. After a compound is administered orally, it first encounters metabolic enzymes in the gastrointestinal lumen as well as in the intestinal epithelium. After it is absorbed into the bloodstream through the intestinal epithelium, it is first delivered to the liver via the portal vein. A compound can be effectively cleared by intestinal or hepatic metabolism before it reaches systemic circulation, a process known as first pass metabolism. The stability of a compound towards metabolism within the liver as well as extrahepatic tissues will ultimately determine the concentration of the compound found in the systemic circulation and affect its half-life and residence time within the body. Cytochrome P450 (CYP) enzymes are found primarily in the liver but also in the intestinal wall, lungs, kidneys and other extrahepatic organs and are the major enzymes involved in compound metabolism. Many compounds undergo deactivation by CYPs, either directly or by facilitated excretion from the body. […]
as §3

Data set [4] can be described thus: mortality in dog animal model. The class given is in vivo. As to conditions: any tested dose.
Source text: as §1, §2

Data set [5] concerns 9 major CYP liver enzymes. Nature of the data set: reactivity to CYP liver enzymes. The format is in vitro ADME. As to conditions: in vitro. As for the experimental part: as §4, §3
The conditions of data set [6]: in vivo.
Source text: as §1, §2

Data set [7] in a line: mortality in rat animal model. As to conditions: any tested dose. The class given is in vivo.
Source text: as §1, §2

The nature of data set [8]: stability in human plasma (in vitro metabolic stability studies). The class given is in vitro ADME. As to the method:
as §4, §3

A short description of data set [9]: stability in dog plasma (in vitro metabolic stability studies). The format is in vitro ADME. As to the method: as §4, §3
The nature of data set [10]: stability in rat plasma (in vitro metabolic stability studies). The class given is in vitro ADME. As for the experimental part: as §4, §3

Consider `CC1(C)C(/C=C/C2=C(Oc3ccc(S(=O)(=O)O)cc3)C(=C/C=C3/N(CCCS(=O)(=O)O)c4ccccc4C3(C)CCCC(=O)NCCCCC(NC(=O)CCCCCCC(=O)NCCCC[C@H](NC(=O)N[C@@H](CCC(=O)O)C(=O)O)C(=O)O)C(=O)O)/CCC2)=[N+](CCCS(=O)(=O)[O-])c2ccccc21` (stereo partly drawn) [formula III], for which the mortality result in data set [1], in [4] and in [7] was “No mortality” in each case. In addition, the mutagenicity entry in data set [2] is “does not show any mutagenicity”. Further, the breakdown into metabolites result in [3] is given as “does not appear to be broken down into metabolites”. For the same compound, the “reactivity to CYP liver enzymes” value in data set [5] is on record as “does not show any significant reactivity”. The “effects on body weight, food intake, gross or microscopic pathology and clinical pathology” value in data set [6] (dog) is given as “no significant effects”. In addition, in data set [6] (dog), the “effects on cardiac, blood pressure or respiratory measures” value was “no statistically significant negative effects”. For the same compound, the “effects on the central nervous system (CNS)” value in data set [6] (rat) was “no biologically meaningful effects”. Further, the stability in plasma entry in [8], in data set [9] and in data set [10] was “stable” each time.
